Laboratory results: patent US20230226096A1 (Orna Therapeutics, Inc., priority 2020, published 2023)

B1: Fipivirus A (nucleic acid)
DNA: TGCGGGTAAACTCCCGCATGTGTGAATGAGGCGATGTCCCAGGAACTAACTGCCGATCCTGGTTTTAACTACGATCCGTATTTGTTACTAATGCGATATCCCCCCATTGTTTGCCTCCATGTTGTTTTCAACGCTTTTGGCCTTGAGTGTTATCAAGTGTTTTAGCGACATAGTGGGAAGCTACGGCTGCGTCCCCATTTTTGAGTGGCGACCCAGTTTTAGTGGCCACTCTGTCCCTGAACTGCGCTATAATGTGAATTTATGTTCACAAAAACGGACTGATGTAACTGTTAATGACTAAGGAATAGTACCTCACTGAAGTATCAAGACCCCGTTCGAGCGGTGTACATATATGGATGGAAACCTTGTCTGAGTCATCTCGAATACTAATCAATGAGGGATGTCGAGTAAGCATATCATGAACCACATAGAATAGTGGGGTTTCGGGGTTAGAGGCTCTCTGCAGCAATGTATCTCTAACACCATGGCCGAAATGAGAGATAGAGACCACGATGTTTGTGTGTAAGTAATGATGTGTGGAAAGAAAATTCTGAATGTTGGTATGATATCAGTCTAAGGGGAGTGGCTCACCTAAGAGCTACCCAAACATTTCACAGCAGACAACATAACGTACTGAGAGTAGTTGGAAGGTTCCAGAAATCAGT
modifications: Fipivirus A
B2: Hepatovirus C (nucleic acid)
DNA: TTCAAAAGCCCCAGCGGGGTTTCATTACCCCGCTGTGGCTTTTGGACTTCCCTAGGATGGGGAAGTAAATTACCATCCTCGCGTTTGCCGTGCGTTAACGGCTACTTTTCTTCTAGCTGTAGAAGTAAAATTCAGCATGTTTTATGTTTGTTTGTCTTGTTTGTTATATACATTTTTACACTCCTACAAATGCACATGAAGAACAGTTTGTAGAGATTAACAAACGCTTAGCTGAACCTAGGTGGTGAATCTAGTAGTAAGATAAGTAGAGGAAGCTATACCTTAAGTTGGTTGGGCCCTCGTGTTTGCTCTATAAACAAAACCAAGTGAGTAGAGTGGATGAACAGTACTAAATCCCTGAGTACAGGGAACCTCACAGGTGTGATACACTTATGTCTATGTGACCTGGTTGGAGGTTGGGCGTGCCCTATGATACTGGAGTGGGAGATCTTTTGGGGAACCCACGTTTTCACACTGCCTGATAGGGTCTTGCCGAGAGACTCACTTGTTTCGGCTGTACTTGTAAC
modifications: Hepatovirus C
B3: Hepatovirus I (nucleic acid)
DNA: GGCTGCCTGTGTCTCAGGGGTAAGTACTGGGGCCGCGTTGACCGTGCGGTACGGTTATGCTTTTAGATTAGGATGTCCGTCTGTCCGGCACTCTCTTTTGCTTAAAATGGCCTTAAATCCATGGGAGGCGTAACCATGGGCCCTTTGTTACCTAGACATGATTGCATTGGGGGCCGTCCTTGGGGCTTAGGCCCCAGCCATTTCTCTTGACTCGTCTAAGAGTTTACTTCATCCTTTTCTTTACTTTATTTTCCAGGCTCTCAGCATGCCGACGGCTCTGACCACTGCGCCCGGTGGGGTTAACTGCATGATTAGCATGCAGCTGTAGGAGTTAAAAGTGCTGACAGGCCAATTCTGACGTAAGTCCACTCTATATTAACTTGATCAAGTAAGGTTGATTGATCTTTGTGAGAGGGTAGGCTACGGGTGAAACCCTCTAGGTTAATACTCATATTGAGAGATACCTCCAGAAGGTGAAGGTTGGCGGATATTGGTGAGTTCTTTTAGGACAAAAACCTTTCAACGCCTGTGGGCCCACCTCACTGGCACAATGCTTTCATCCCCAATTGTGATGGGTAGTTTGGACTGAAATCAGGAGTAACCTGCCCTACGAGTTTAGGGGTAGTTCAGGGGTATTTAGGCTTCCACATTTGATAGAGTTTATGAGAGTGAGCC
modifications: Hepatovirus I

tested on: HEK293 cells; type: cell-based, human; conditions: luminescence from secreted Gluc in supernatant 24 hours after transfection of HEK293 cells; circular RNA encoding Gluc with the named IRES (UTR truncated to 675 nt)

Molecule | Expression
B1 | 2.69E+05
B2 | 5.08E+05
B3 | 8.79E+05
